Source: US20040116653A1 (JARROW FORMULAS, published 2004)
Ends that are not written are not given here.

B1: octameric branched peptide presenting the GPGTTK sequence (GPGTTK MBP) (peptide)
peptide 1: GPGTTK
peptide 2: GPGTTK
peptide 3: GPGTTK
peptide 4: GPGTTK
peptide 5: GPGTTK
peptide 6: GPGTTK
peptide 7: GPGTTK
peptide 8: GPGTTK
modifications: Each of the eight arms is bound through its C-terminus (Lys 6) to an 8-branching lysine core (Map resin), which cannot be written as a linear chain. The peptide was conjugated with biotin for the rshCD4 ELISA; the site is not stated.

Target: human CD4 on cells (MT-2, MT-4 cells; mouse SR.hCD4 cells transfected with human CD4) (human, UniProt P01730 26-458)
Experiment: cell-based or functional assay

Binder | EC50, inhibition of HIV-1IIIB replication in MT-4 cells (p24 ELISA, day 3) [µM]
SGPGTTKRFPETVLARCVKYTEIH (also: biotin conjugated in ELISA, site not given here) [synthetic soluble peptide corresponding to amino acids 51-74 of CD38 (CD3851-74)] | 2.2
B1 | 4.3
